Drawing on patent US20150239981A1, this text covers Kd for 6 substances.

The target in test [1] is FcγRI (human) (UniProt P12314). Briefly: SPR. (In general: In SPR one partner is held on a chip, and binding of the other changes the refractive index at the surface.)
Target sequence in this assay (P12314 16-288): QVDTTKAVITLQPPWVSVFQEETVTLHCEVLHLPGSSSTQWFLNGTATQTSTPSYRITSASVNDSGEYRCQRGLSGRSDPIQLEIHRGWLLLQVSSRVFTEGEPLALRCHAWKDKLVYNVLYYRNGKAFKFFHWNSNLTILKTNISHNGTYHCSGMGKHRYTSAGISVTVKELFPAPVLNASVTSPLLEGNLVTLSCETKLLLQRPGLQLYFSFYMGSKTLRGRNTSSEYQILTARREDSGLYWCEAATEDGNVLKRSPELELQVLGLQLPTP
The target in test [2] is FcγRIIA-R131 (human) (UniProt P12318). Briefly: SPR Biacore T100, antibody immobilised, receptor as analyte 0-12800 nM, steady state fit.
The target in test [3] is FcγRI (human) (UniProt P12314). As to the kind of experiment: SPR Biacore T100, FcγRI captured by pentaHis antibody, antibody as analyte 0-100 nM.
Target sequence in this assay (P12314 16-288 limits assumed): as the sequence (P12314 16-288) above
In test [4] the target is FcγRIIIA-V158 (human) (UniProt P08637). Briefly: SPR Biacore T100, antibody immobilised, receptor as analyte 0-12800 nM, steady state fit.
Sequence of FcγRIIIA-V158 (human) (P08637 17-208 F176V limits assumed): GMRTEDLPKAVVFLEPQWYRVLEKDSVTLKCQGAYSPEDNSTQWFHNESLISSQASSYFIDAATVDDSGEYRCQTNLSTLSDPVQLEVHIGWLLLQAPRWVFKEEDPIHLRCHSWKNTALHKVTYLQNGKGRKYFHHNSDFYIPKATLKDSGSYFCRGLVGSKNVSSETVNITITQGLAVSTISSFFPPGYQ

Sequence of FcγRIIA-R131 (human) (P12318 36-218 H167R limits assumed): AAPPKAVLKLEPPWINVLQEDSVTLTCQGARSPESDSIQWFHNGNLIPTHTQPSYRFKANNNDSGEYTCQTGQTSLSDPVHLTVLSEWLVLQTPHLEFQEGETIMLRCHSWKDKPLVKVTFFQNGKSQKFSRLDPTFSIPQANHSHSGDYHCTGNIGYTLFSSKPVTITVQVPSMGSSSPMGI
Sequence of IgG4 SPLE (antibody not named, Tables 2A and 2B) (constant): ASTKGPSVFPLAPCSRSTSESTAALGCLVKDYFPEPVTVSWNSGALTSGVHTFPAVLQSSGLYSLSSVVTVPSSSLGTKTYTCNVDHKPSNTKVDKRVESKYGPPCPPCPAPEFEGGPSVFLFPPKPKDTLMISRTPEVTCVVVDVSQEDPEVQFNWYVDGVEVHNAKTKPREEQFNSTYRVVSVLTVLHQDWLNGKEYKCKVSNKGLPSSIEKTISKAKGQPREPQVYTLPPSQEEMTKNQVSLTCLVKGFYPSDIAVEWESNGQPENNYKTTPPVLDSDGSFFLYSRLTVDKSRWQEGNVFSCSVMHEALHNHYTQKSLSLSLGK

IgG4 Wt showed a Kd in test [1] of 14 nM.
“IgG4 SPLE (antibody not named, Tables 2A and 2B)” returned a Kd in test [2] of 10000 nM.
As to CD20 antibody GA101 IgG1 P329G, in test [3], the equilibrium dissociation constant (Kd) turned out to be 5.7 nM.
Take GA P329G: the equilibrium dissociation constant (Kd) in test [1] was found to be 12 nM.
As for “WT IgG1 (antibody not named, Tables 2A and 2B)”, the Kd in test [3] was found to be 5 nM; in test [2] it was 2000 nM; in test [4], 700 nM.
The substance CD20 antibody GA101 IgG1 wildtype had a Kd in test [3] of 4.6 nM.

The Kd is a measure of binding affinity in units of concentration. A low value points to a tighter complex.
